In US20070015231A1, “Assay for protein tyrosine phosphatases” (CEPTYR, Inc., priority 2000, published 2007):
Like-named read-outs stand apart in the source and are kept apart here.

Tests used:
PTP1B = molecular target: T1, PTP1B (Homo sapiens, UniProt P18031); test: PTP catalytic assay of F-ERP-P dephosphorylation with alternate reaction terminator molecules (FP); assay type: biochemical
T1 construct: PTP1B proteins (wild type and mutant forms) comprising amino acids 1-321 were expressed in E. coli; made in house; host or cells: E. coli
T1 sequence (P18031 1-321): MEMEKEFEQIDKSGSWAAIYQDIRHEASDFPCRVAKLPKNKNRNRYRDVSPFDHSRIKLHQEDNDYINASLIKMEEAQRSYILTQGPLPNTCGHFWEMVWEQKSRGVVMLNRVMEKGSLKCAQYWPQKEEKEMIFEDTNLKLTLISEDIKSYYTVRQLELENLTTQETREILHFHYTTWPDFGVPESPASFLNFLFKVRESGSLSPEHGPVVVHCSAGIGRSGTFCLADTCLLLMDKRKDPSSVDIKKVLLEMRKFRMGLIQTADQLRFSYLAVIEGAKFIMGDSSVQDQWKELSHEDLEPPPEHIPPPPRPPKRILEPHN
Experimental: The ability of each reaction terminator molecule also was assessed in the presence and absence of vanadate (a well known, nonspecific PTP inhibitor).
Assays were set up in black polypropylene plates with 20 μl of 25 mM Tris HCl pH 7.5 and 20 μl of 300 nM F-ERP-P in 25 mM Tris HCl pH 7.5, 1 mM EDTA, 1 mM DTT, 0.25 mg/ml ovalbumin (TEOD buffer). […] Plates were read using the Polarstar instrument from BMG Lab Technologies using the following settings:
As in Example 3, wells were set up to measure background fluorescence to allow proper calculation of mP values and other wells were set up without addition of terminator reagent to assess the minimum polarization value of the unbound fluorescent phosphotyrosyl peptide (F-ERP-P).

C215S PTP1B = molecular target: T2, C215S PTP1B (Homo sapiens, UniProt P18031, C215S); test: Inhibition of fluorescent EGF receptor peptide binding to CS substrate binding mutant (FP); conditions: Table 3; fluorescein-labeled EGF receptor peptide
T2 construct: PTP1B proteins (wild type and mutant forms) comprising amino acids 1-321 were expressed in E. coli; made in house; host or cells: E. coli
T2 sequence (P18031 1-321 C215S): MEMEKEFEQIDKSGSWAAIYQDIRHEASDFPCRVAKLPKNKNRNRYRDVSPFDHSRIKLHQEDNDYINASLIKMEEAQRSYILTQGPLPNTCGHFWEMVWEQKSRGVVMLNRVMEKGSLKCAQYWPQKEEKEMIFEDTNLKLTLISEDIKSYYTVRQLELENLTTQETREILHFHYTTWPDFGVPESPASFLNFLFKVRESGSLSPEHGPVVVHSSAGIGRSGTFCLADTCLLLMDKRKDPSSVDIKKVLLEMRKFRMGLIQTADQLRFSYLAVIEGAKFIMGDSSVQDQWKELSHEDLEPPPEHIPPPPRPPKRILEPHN
Experimental: (§1) To the test agents was added 40 μl of 3 nM CS or DA binding mutant of PTP1B in Assay Buffer. Plates were shaken for 30 sec to mix the two solutions. After another 12.5 minutes 40 μl of 3 nM fluorescein-labeled EGF receptor peptide was added and the solutions mixed for 30 sec. After 12.5 minutes of incubation the plates were read as described in Example 3.

D181A PTP1B = molecular target: T3, D181A PTP1B (Homo sapiens, UniProt P18031, D181A); test: Inhibition of fluorescent EGF receptor peptide binding to DA substrate binding mutant (FP)
T3 construct: PTP1B proteins (wild type and mutant forms) comprising amino acids 1-321 were expressed in E. coli; made in house; host or cells: E. coli
T3 sequence (P18031 1-321 D181A): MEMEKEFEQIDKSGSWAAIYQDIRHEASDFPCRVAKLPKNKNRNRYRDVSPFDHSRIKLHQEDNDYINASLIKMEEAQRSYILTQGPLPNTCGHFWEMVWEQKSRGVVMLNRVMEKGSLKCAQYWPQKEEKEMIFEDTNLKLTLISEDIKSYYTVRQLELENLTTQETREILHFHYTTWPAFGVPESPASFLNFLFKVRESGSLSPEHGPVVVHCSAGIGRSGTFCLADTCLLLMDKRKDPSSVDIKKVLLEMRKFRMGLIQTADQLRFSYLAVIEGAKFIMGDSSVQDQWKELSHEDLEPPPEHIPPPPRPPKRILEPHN
Experimental: as §1

[1] = molecular target: T4, fluorescein-labeled EGF receptor derived phosphopeptide D-A-D-E-pY-L-NH2 (not fully specified)
T4 chain: DADEYL

[2] = molecular target: fluorescein-labeled insulin receptor derived phosphopeptide T-R-D-I-pY-E-T-D-Y-Y-R (human); test: fluorescence polarization, mutant PTP titrated against fluorescein-labeled peptide in solution (midpoint = apparent Kd)
[3] = molecular target: fluorescein-labeled EGF receptor derived phosphopeptide D-A-D-E-pY-L-NH2 (human); test: as above
[4] = molecular target: fluorescein-labeled insulin receptor derived phosphopeptide T-R-D-I-pY-E-T-D-Y-Y-R (human); test: fluorescence polarization, mutant PTP titrated against fluorescein-labeled peptide in solution
[5] = molecular target: fluorescein-labeled EGF receptor derived phosphopeptide D-A-D-E-pY-L-NH2 (human); test: as above
[6] = molecular target: fluorescein-labeled EGF receptor derived phosphopeptide D-A-D-E-pY-L-NH2 (human); test: fluorescence polarization, C215S PTP1B as reaction terminator (Polarstar reader)

Molecule: [Na+].[Na+].[Na+].[O]=[V]([O-])([O-])[O-] [sodium ortho vanadate]
- effect of inclusion in the terminator mixes on observed endpoints (PTP1B; 2 mM in terminator solution with C215S PTP1B or G104): did not appear to have any additive effect

Molecule: OO [H2O2, hydrogen peroxide]
- IC50 (C215S PTP1B): 250 µM
- IC50 (D181A PTP1B; Table 3, fluorescein-labeled EGF receptor peptide, read-out: D181A IC50): 10 µM
- IC50 (D181A PTP1B; read-out: IC50 for inhibition of the DA substrate binding mutant): ~10 µM

B1: PTP1B (wild type), amino acids 1-321 (protein)
chain: MEMEKEFEQIDKSGSWAAIYQDIRHEASDFPCRVAKLPKNKNRNRYRDVSPFDHSRIKLHQEDNDYINASLIKMEEAQRSYILTQGPLPNTCGHFWEMVWEQKSRGVVMLNRVMEKGSLKCAQYWPQKEEKEMIFEDTNLKLTLISEDIKSYYTVRQLELENLTTQETREILHFHYTTWPDFGVPESPASFLNFLFKVRESGSLSPEHGPVVVHCSAGIGRSGTFCLADTCLLLMDKRKDPSSVDIKKVLLEMRKFRMGLIQTADQLRFSYLAVIEGAKFIMGDSSVQDQWKELSHEDLEPPPEHIPPPPRPPKRILEPHN
- time to complete dephosphorylation of F-ERP-P (fluorescence polarization catalytic assay) [1]: under these conditions the dephosphorylation of F-ERP-P was complete by 20 minutes

B2: PTP1B(C215S), amino acids 1-321 (protein)
chain: MEMEKEFEQIDKSGSWAAIYQDIRHEASDFPCRVAKLPKNKNRNRYRDVSPFDHSRIKLHQEDNDYINASLIKMEEAQRSYILTQGPLPNTCGHFWEMVWEQKSRGVVMLNRVMEKGSLKCAQYWPQKEEKEMIFEDTNLKLTLISEDIKSYYTVRQLELENLTTQETREILHFHYTTWPDFGVPESPASFLNFLFKVRESGSLSPEHGPVVVHSSAGIGRSGTFCLADTCLLLMDKRKDPSSVDIKKVLLEMRKFRMGLIQTADQLRFSYLAVIEGAKFIMGDSSVQDQWKELSHEDLEPPPEHIPPPPRPPKRILEPHN
- stopping of the dephosphorylation reaction (reaction terminator) (PTP1B; reactions stopped after 11 min, polarization stable for 14 hours): equally effective at stopping the dephosphorylation reaction
- EC50 [2]: 0.00116 µM
- EC50 [3]: 0.000965 µM
- Peak mP [4]: 151 mP
- Peak mP [5]: 316 mP
- maximum polarization value for bound peptide [6]: 300 mP
- termination of PTP1B-mediated dephosphorylation of F-ERP-P [1]: monoclonal antiphosphotyrosine antibody G104 and the C215S-PTP1B binding mutant were equally effective at stopping the dephosphorylation reaction
